A short description of the series: soluble on expression in E. coli; label from the status in PepcDB or PDB records.
With “KFDGDDPVIPEWTQGGQIIPTMNLKVGDSVYTRVFDQSGENVAYRTELAISNDVLTQAKNWSYALASKINQEQTKLQAGQYSEDKFTPVYGTNPIYLQSNSGLERVEIGYNIETPVPDYSLTVDGLASEYIIGTEPTALDLTLTAEGDLTAELTVYNHHREPLASWTGSIQDGASEQVELTLSKSEPGHHMLVTRIKDTDGNLVDQQTLDFHLKSEEVTPPPSGEYDFVFPEGLSSYTAGTKVLASDGAIYQCKPFPYSGYCVQWSESATQFEPATGSHWEMAWDKLN”, the “soluble on expression in E. coli” value is recorded as “not soluble”.
In the case of “MGSDKIHHHHHHAADVSFPDAVRKVAVINNMPVLKTKDNHEILSSELEGDGKVASEALAENIANVNYFDQVIICDSVFRAQDKVPRVNVILTKEEVRKLSEDLGVDMILSFDRIHIQTKPGVLFYPDFPMPIDAVDGIISPIVRVYIPNRDKPLFVVAKQDTISWEIEPALSDRKIVKEASEYAASIPVEHLLPHWDEVARFYYDGGNIEMRDAGVYLRENNWDEAYSQWKIAYEKRKGQQKMKAAFNIALYYEIKDNVEQAKEWLGKAKKLVKSGSRDEQLIAFYSLELEKRGSKLSQLRIQMKRFDDNF”, the “soluble on expression in E. coli” value was “not soluble”.
Regarding “MGSDKIHHHHHHMDNPVMSAITSLYPQVQFLQRQAASLLLYQSVLQTDVGIAFQELLQAIRYADADARGSLQAYGNYFHALATRKQNWEDYLVSQILIAENPFSKVTQQQDFKDLPPALISAVKHDLQVLQSLYECNSAVLSQWVQAVAHLPISPVVWYLEQDDMGSETALSLHHLEHWADAVEELATHYQKFGIGLFAQYRALRWQDGEFVGIPYPDPVKLGTLVGYESQQEALLKNTEFLLSGEKALHVLLYGSRGAGKSSLVKALLNEYSHRQLRLLEVSKADLKDLPKIVEQLRGVPQKFIIFVDDLSFEEDDDAFKALKVVLEGNLTARPHNVVVYATSNRRHLIREFFADRPSLKNNEEVHAGDTMQEKLSFSDRFGLTLTFESADQSTYLKIVRHLATQAGISISPEELEYQALQWATRHNGRSGRTAQQFIDFLKADTSVFATNNSILDTQS”, the “soluble on expression in E. coli” value was “not soluble”.
Consider “MGSSHHHHHHGKTIFVIVPTNEEQVAFLEALAKQDELNFDWQNPPTEPGQPVVILIPSDMVEWFLEMLKAKGIPFTVYVEEGGSENLYFQGGGGGGAKDCITRGPNSMIAWKYEDGSFQCDNCIGAHAVGVSSGTVRRRWTEYDKDRNILNSFVEEHREGKKLVLHDESRGMSILLRSDLSGIRTEGEQTFRQLYSGAFISVVDCT”, for which the “soluble on expression in E. coli” value is listed as “soluble”.
Next, “MAHHHHHHMLSLCKSLSSDAPTRTKTRVVLSMFNASHVDELLASTTRTLQRSQVLLDERRSVIQSQQGLPPMFCVASSSAASTSVGSSAAAPYASASSSFADTVRSLQSLSELRSYVEATAEMMKRVREEGMEPSPAMQQRRARGQDFALLQSMTRGLRGAMTAAWQMSETTAALWAFSTEACGGAEEAAAAEDAASAAAGSTLCAVPGARSGGTRSSGAQLTSTLIFSAFCVDLAIAAPRAASAVAAELESVFEPSSDNGRPSSLVSEWMRDGNVKLSALLRDVAALLPPPVKTRLVARLADVLFRPSPALPRSPKESSGHPLGCELLSGGQLLLPSLDYYLLEQYPSSLASRWFLQPLQATAEHLRADYYASADQFHVQCRWLLRLVLTLLYACQSAALPTSTASRPPLERRLRTAQRLYDAWLIPLEKTFGNGTARHGMSVSFNRALVQPHGHMVERLLFTSSPASGVSGVSKVVQQSREWSGILYSAQYRLLLILEKLAHSEVAQVNGTSSTSAKQRTYETMLRQNGGKVSVSLLQTLAEDKQLLLDETPSRSPDGHRLYKLHDGLLDDSGKAVFVYLDDGALFTKVGRARAFQRVKSVEDIFKPLQ”: “not soluble”; “MSLNKIDMPVLNVKMVPVEKIKSNSYNPNHVAGPEMELLELSILKDGYTQPIVCYCDDKKDEYIIIDGFHRYLIGKSKLDLKELPVVVIDKPLEQRMSSTIRHNRARGKHEIDKMSELVLLLVNEGWDDHKIGKELGMEKEEVLRLKQVTGLKSAFLNHEFSESWDEFVKKNYPKQKDEEGGSHHHHHH”: “soluble”.
For “MGSDKIHHHHHHMTAISREVPRTPHDLSLYLTRLGLTAPDLGSAMQPVLDVLVSRTAAVGAGYFQLRDSTLTYQARAASGDLPQGPLMEALLAHGLPPELPLVQALEAADGALFFEDTRLDPQAAGFADLGVLALTAAPVHNQSGRLVGALLSHVFAPHPWSAEERQLVSTVTGLLTLLAARLDAEERERAAHESALRALGLMLEARDTETQGHTDRVTALALRLGRALGLSDTELRDLRWGAYLHDIGKIAIPDAILHCPGTLDLAAWARMQEHVNEGTRLAAQLPFLPRAALDVIACHHECWDGSGYPRGLAGEAIPRHARIFAACDVYDALVSARPYKRAWTHAEATAYLEQRSGHQFDPVIVRALLRVLEDEDSAAANA”, the “soluble on expression in E. coli” value was “not soluble”.
On to “MGSDKIHHHHHHMAVSIEGSPPCSYFMCLQLYSQYIRYNHFMRLNDEQQMNEKHSDHADKTKMPSSETLKQVCQPEERVLGRADDGSVMEFMLQTEHGNTYLCRFPPGFISHAAIQLCTEEIWYFIQGEGVFWIKHEGIERQVPFNAGTALHAPCGGAMQFRNNGHLEAVAHVVTMPPWPGSDGAKLTKGPWESV”, for which the “soluble on expression in E. coli” value was “not soluble”.
In the case of “MSLTSPLAYSYTHTGTEATTGYFSCEPPQDMTMEQALAWLAVHPMDDFMHRHLLRRLGEMSPEELAKLGPTLQASPVLEALFCELCALAPEGSPLRATLTEILEGLSTTSEASPAAIAERLGAYTPLPYIGWAALPDRELHQAWCRLFSDNIQNHRMLPHPEDNDLAPLYADEEPATRPEPPITAVHARLAAAPGTPWSRPPAHETAQKALEVLVENDIIAGVEMRHEASLSPIALLRRWRLDLGVRNGGLAYTLRGEATTYGRGLSLADARASYAMEMVERASSYANVGPEGILGLTRPQPLRKARHSELVAEGLAVLDPNAIPLEVPYRDQPIHWLTGHASEANGNAPTLVPAQMVYLFCNLDEVALFTSSSSTGLASGNTLAEAKVAALTEILERDAEATTPYDRARCFRPATDDPLLRSLLEDYAARGIQIQMQDMTTEWGIPCYTCFVMSSRGKLARGTGAGLDGRRAAISALTETPYPYPRGGASGPGLRGLPERKLEDLPSFTLESPERNLALLEETLASTGHHPVYVELTRADLGLPVVKALIPGLELTADFDDCTRISRRLYRNYLRMGYDEGHHHHHH”, the “soluble on expression in E. coli” value is on record as “soluble”.
“MGSDKIHHHHHHVLAPSSADTLQGLPYEVVSYRKTYESGYRSDWHSHPRHQIIYSVSGLMMTDTEGVRWAVPSGFGLIVPAGIAHTTKMIGDVSIETLYVSPSSRGRSAFESCRVVSISAMLASLISELCREELRDRNSRKAFHLRQLIFLELSDAPTSHLAVKYPVDPQLRRVCDALIADPANSWTIDQWAFEIGKSRRSFTRAFYSQTDQTFRQWTQRLRCQLALQKRAEGQSLERIARDLGYGSRYSLEAMMQKLIMVEEIN”: the “soluble on expression in E. coli” value is “not soluble”.
With “KVITRGEATRLINKEDAVVVDLRQRDDFRKGHIAGAINLLPSDIKANNVGELEKHKSQPIIVVDGSGMQAQEPASALNKAGFEKVFVLKEGIAGWSGENLPLVRG”, the “soluble on expression in E. coli” value is “soluble”.
Take “MAQITTTDANEFSSSAEFIPMRGFSNCHLQTMLPRLFRRQVKFTPYWQRLELPDGDFVDLAWSENPAQAQHKPRLVVFHGLEGSLNSPYAHGLVEAAQKRGWLGVVMHFRGCSGEPNRMHRIYHSGETEDASWFLRWLQREFGHAPTAAVGYSLGGNMLACLLAKEGNDLPVDAAVIVSAPFMLEACSYHMEKGFSRVYQRYLLNLLKANAARKLAAYPGTLPINLAQLKSVRRIREFDDLITARIHGYADAIDYYRQCSAMPMLNRIAKPTLIIHAKDDPFMDHQVIPKPESLPPQVEYQLTEHGGHVGFIGGTLLHPQMWLESRIPDWLTTYLEAKSCLEHHHHHH”: the “soluble on expression in E. coli” value is given as “not soluble”.
In the case of “MGSDKIHHHHHHMSDARGAFHSKGRWSRMALPAILCAGLLVGCGAEPPAEEHVRVLAQTVKMAEFASATSITGDIQARVQADQSFRVGGKIVERLVDVGDHVAAGQVLARLDPQDQRSNVENAQAAVAAQQAQSKLADLNYQRQKALLPKGYTSQSEYDQALASVRSAQSSLKAAQAQLANARDLLSYTELRASDAGVITARQAEVGQVVQATVPIFTLARDGERDAVFNVYESLFSHDVDGQRITVSLLGKPEVTASGKVREITPTVDERSGTLKVKVGLDSVPAEMSLGSVVNASVAAPAEHSVVLPWSALSKVGEQPAVWLLDQQGKARLQPVRVARYASEKVVIDGGLEAGQTVVTVGGQLLHPGQVVEVAQPPQPTQSTASRDAVGGGQP” it was “not soluble”; in that of “MGSSHHHHHHSSGLVPRGSHMASGLVPRGSHMASMPEASFFTDMLQSITDHGRQLLFSGSRNTQAAAKADLETLCEMLLSSRGEASGMALAAEILDRWGALDSEGAQKFFHMLQQKFGPDTARLDQAIEDYRTDKSSTAVIALHQAAEPRRQELLRRLNHAPNGTATLVRMRQQLLASKDRSEAYHALDADFTHLFGSWFNRGFLTLRPIDWTTPAYILEKIIQYEAVHEIAGWEELRRRLAPADRRCFAFFHPRLADEPLVFVEVALTRSVPKAIADVLDEGREQINADEATTAVFYSISNCQDGLRGISFGNFLIKQVVEDLRKDLPGLKNFVTLSPVPGFARWLAKMRTATGDRSLSEAALKTLSLLDDPNWPGSESSAADVERVLLPLAARYFLTERTPEGRPVDPVARFHLGNGARLERVNFLGDRSPKALQQAHGLMVNYLYKLDDIVANHEALAQRGEVIASPAVKSLLNQNDEGRRSGNGQQGSRAFAQLMNSTLGGGRK”, “soluble”; in that of “MKIDKYSAILGNTVGFHNMSTLTDHRPVASLPFGGKYRLIDFPLSSLANAGVRSVFGIFQQDNISSVFDHIRSGREWGLSTLLSHYYLGIYNTRVESSTVGKEYYQQLLTYLKRSGSNQTVALNCDVLINIDLNQVFHLHSTTKEPITVVYKKLAKKDISEVNAILDVDETDHVLSHKLFDSKSTAETFNMSTDIFVVDTPWLIEHLEEEAKKEHPEKLRYVLRDLAVKEGAFAYEYTGYLANIHSVKSYYQANIDMLESQKFYSLFSPNQKIYTKVKNEEPTYYANTSKVSTSQFASGSIIEGQVANSVLSRNIHVHKDSLVKDSLLFPRVVIGEGAQVEYAILDKGVEVEHGVVIRGTAEHPVVVKKGAKVTEDIHS”, “not soluble”.
As to “MSLNILDVMKIPAFENANLIAGKAGGEREVQHVNMMDAPDIVDFLHKNELLVTTAYHLKDHPHQLSELIRQMAKRGCAGLGIKTKRYLEDIPKEIIELADSYAFPIIELPEHIRLGDIVNATLSHILDMRSNEGHHHHHH”, the “soluble on expression in E. coli” value is “soluble”.
For “MNIVLMGLPGAGKGTQAEQIIEKYEIPHISTGDMFRAAIKNGTELGLKAKSFMDQGNLVPDEVTIGIVHERLSKDDCQKGFLLDGFPRTVAQADALDSLLTDLGKKLDYVLNIKVEQEELMKRLTGRWICKTCGATYHTIFNPPAVEGICDKDGGELYQRIDDKPETVKNRLDVNMKQTQPLLDFYSQKGVLKDIDGQQDIKKVFVDINDLLGGLR”, the “soluble on expression in E. coli” value is reported as “soluble”.
For “MGSDKIHHHHHHMIALKELKQYADLHVKTHSFQVINPRQVLQSIERAASEEPTAGGWDWQWVDAANKCLQANAIEDAIQCYNFARFPFPKTSLQQEAADRLTKVFEQAYCREDVQKHRVYYDNQKVTVYAANLHPDLPCLLVLGGIVSIKEQWSVFLQVGKRLGFSVLITECPGVGENQVRYHADSYRMIGQILDTFAGQAKVGDTYIVGMSFGGHLAMKQALHDERIKGITTVGAPLHYFFQDYSQLNVPFITQATLAHVMEEELDHVGRALSRFAFMPKELNKLKIPITYIFSSKDEIIPKSEKSFLLDNIANLTFYEFDDVHGSPNHLPLIQKIIPLSILKHSNSKRYFVRIMLAFLLTYNKWKGRDGKR”, the “soluble on expression in E. coli” value is reported as “not soluble”.

The values above are taken from the DeepSol protein solubility set.
